Reference: US20220153832A1 (PIONYR IMMUNOTHERAPEUTICS, published 2022)

T1: N-terminally polyhistidine tagged human MARCO ECD (147-520), recombinant (human, UniProt Q9UEW3 147-520)
T1 construct: also called PI-RG-3000; recombinant human MARCO; not shown: N-terminal polyhistidine tag
T1 sequence: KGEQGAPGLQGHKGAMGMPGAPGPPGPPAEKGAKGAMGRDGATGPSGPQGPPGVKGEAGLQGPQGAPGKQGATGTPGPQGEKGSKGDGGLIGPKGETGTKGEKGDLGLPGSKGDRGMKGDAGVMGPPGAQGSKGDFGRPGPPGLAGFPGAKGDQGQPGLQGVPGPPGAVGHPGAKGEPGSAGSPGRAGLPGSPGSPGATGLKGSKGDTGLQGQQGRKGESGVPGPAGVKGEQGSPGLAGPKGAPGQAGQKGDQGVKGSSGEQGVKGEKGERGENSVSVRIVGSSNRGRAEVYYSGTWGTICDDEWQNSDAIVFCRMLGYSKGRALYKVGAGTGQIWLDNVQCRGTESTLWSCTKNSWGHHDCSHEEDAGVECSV

T2: Human Macrophage Receptor with Collagenous Structure (MARCO), full length, on cells (human, UniProt Q9UEW3 1-520)
T2 construct: the cell type is named under assay; also called huMARCO; HuMARCO
T2 sequence: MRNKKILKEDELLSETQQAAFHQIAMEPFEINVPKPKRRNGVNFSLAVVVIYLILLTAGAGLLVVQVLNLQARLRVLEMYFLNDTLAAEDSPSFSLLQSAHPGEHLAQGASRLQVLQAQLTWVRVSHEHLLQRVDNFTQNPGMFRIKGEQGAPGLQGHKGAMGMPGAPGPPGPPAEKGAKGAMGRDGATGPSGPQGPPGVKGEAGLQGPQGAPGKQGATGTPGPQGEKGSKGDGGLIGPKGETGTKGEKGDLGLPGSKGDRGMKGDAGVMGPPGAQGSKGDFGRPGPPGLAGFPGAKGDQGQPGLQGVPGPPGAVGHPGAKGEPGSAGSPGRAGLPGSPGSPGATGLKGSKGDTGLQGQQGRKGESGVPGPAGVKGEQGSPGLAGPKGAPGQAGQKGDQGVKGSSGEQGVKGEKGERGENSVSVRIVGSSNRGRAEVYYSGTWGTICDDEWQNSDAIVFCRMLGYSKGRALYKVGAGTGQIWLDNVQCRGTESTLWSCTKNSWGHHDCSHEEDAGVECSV

T3: recombinant cynomolgus MARCO protein (cynomolgus, UniProt A0A2K5X0Z2 65-519)
T3 construct: Construct not described; also called cyno MARCO; cynoMARCO
T3 sequence: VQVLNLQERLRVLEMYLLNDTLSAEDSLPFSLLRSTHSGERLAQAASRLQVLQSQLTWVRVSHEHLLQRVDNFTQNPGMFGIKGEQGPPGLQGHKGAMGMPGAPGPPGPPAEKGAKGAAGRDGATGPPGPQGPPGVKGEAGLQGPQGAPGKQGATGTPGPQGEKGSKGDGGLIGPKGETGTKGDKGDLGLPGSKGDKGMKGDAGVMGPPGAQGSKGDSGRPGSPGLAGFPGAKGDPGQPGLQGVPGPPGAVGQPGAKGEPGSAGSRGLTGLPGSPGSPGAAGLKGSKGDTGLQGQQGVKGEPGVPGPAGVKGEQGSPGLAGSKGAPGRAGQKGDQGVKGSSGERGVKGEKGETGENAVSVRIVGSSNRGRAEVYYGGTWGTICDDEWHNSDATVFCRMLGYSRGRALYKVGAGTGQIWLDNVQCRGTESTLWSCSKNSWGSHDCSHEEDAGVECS

T4: N-terminal his-tagged mouse MARCO protein, recombinant (mouse, UniProt Q60754 150-518)
T4 construct: The entry holds the His tag, the CLD and the SRCR domain; also called mMARCO (RG3016); PI-RG-3016
T4 sequence: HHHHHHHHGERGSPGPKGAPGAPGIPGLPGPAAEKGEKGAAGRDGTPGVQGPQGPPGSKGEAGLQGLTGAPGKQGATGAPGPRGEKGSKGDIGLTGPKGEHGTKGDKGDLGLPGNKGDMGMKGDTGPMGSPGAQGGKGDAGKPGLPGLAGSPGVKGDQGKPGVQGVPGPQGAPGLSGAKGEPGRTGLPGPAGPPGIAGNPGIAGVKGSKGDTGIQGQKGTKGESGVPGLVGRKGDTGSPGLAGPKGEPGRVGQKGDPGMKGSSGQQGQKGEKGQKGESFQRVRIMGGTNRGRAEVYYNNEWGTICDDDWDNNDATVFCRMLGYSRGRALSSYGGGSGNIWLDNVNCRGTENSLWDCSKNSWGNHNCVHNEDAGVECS

B1: PI-HX-3061 (antibody, rat IgG2a)
heavy: EVQLVESGGGLVQPGSSLKLSCVASKFTFSNYGMNWIRQAPKKGLEWIALIYYNSNNKYYADSVKGRFTISRDNSKNTLYLEMNSLRSEDTAMYYCAKSLTGGSDYFDSWGQGVMVTVSSAETTAPSVYPLAPGTALKSNSMVTLGCLVKGYFPEPVTVTWNSGALSSGVHTFPAVLQSGLYTLTSSVTVPSSTWPSQTVTCNVAHPASSTKVDKKIVPRNCGGDCKPCICTGSEVSSVFIFPPKPKDVLTITLTPKVTCVVVDISQDDPEVHFSWFVDDVEVHTAQTRPPEEQFNSTFRSVSELPILHQDWLNGRTFRCKVTSAAFPSPIEKTISKPEGRTQVPHVYTMSPTKEEMTQNEVSITCMVKGFYPPDIYVEWQMNGQPQENYKNTPPTMDTDGSYFLYSKLNVKKEKWQQGNTFTCSVLHEGLHNHHTEKSLSHSP
light: DVQMTQSPSYLAASPGESVSISCKASKSIGTFLAWYQEKPEKTNKLLIYSGSTLQSGTPSRFSGSGSGTDFTLTIRNLEPEDFAVYYCQQHDEYPFTFGSGTKLEIKRADAAPTVSIFPPSTEQLATGGASVVCLMNNFYPRDISVKWKIDGTERRDGVLDSVTDQDSKDSTYSMSSTLSLTKADYESHNLYTCEVVHKTSSSPVVKSFNRNEC
notes: Parental rat hybridoma, rat IgG2a; cross reactive with human and mouse MARCO
B2: PI-HX-3031 (antibody)
heavy: QVQLKESGPGLVQPSQTLSLTCTVSGFSLTSYHVSWVRQPPGKGLEWMGAIWTGGSIAYNSLLKSRLSISRDTSKSQVFLKMNSLQTEDTATYYCARDLSDYYSSYTSFDYWGQGVMVTVSTAETTAPSVYPLAPGTALKSNSMVTLGCLVKGYFPEPVTVTWNSGALSSGVHTFPAVLQSGLYTLTSSVTVPSSTWSSQAVTCNVAHPASSTKVDKKIVPRECNPCGCTGSEVSSVFIFPPKTKDVLTITLTPKVTCVVVDISQNDPEVRFSWFIDDVEVHTAQTHAPEKQSNSTLRSVSELPIVHRDWLNGKTFKCKVNSGAFPAPIEKSISKPEGTPRGPQVYTMAPPKEEMTQSQVSITCMVKGFYPPDIYTEWKMNGQPQENYKNTPPTMDTDGSYFLYSKLNVKKETWQQGNTFTCSVLHEGLHNHHTEKSLSHSP
light: DIQMTQSPASLSTSLGETVSIECLASEGISNDLAWYQQKSGKSPQLLIYAASRLQDGVPSRFSGSGSGTRYSLKISGMQPEDEADYFCQQSYKYPLTFGSGTKLEIKRADAAPTVSIFPPSTEQLATGGASVVCLMNNFYPRDISVKWKIDGTERRDGVLDSVTDQDSKDSTYSMSSTLSLTKADYESHNLYTCEVVHKTSSSPVVKSFNRNEC
notes: Parental rat hybridoma, rat IgG2a
B3: PI-3015-AB (antibody, human IgG1, kappa)
heavy: not shown
light: DIQMTQSPSSLSASVGDRVTITCRASEGISNDLAWYQQKPGKAPKLLIYAASRLQSGVPSRFSGSGSGTDYTLTISSMQPEDFATYYCQQSYKYPLTFGQGTKLEIKRTVAAPSVFIFPPSDEQLKSGTASVVCLLNNFYPREAKVQWKVDNALQSGNSQESVTEQDSKDSTYSLSSTLTLSKADYEKHKVYACEVTHQGLSSPVTKSFNRGEC
B4: PI-3010-AB (antibody, human IgG1, kappa)
heavy: not shown
light: DIQMTQSPASLSTSLGETVSIECLASEGISNDLAWYQQKSGKSPQLLIYAASRLQDGVPSRFSGSGSGTRYSLKISGMQPEDEADYFCQQSYKYPLTFGSGTKLEIKRTVAAPSVFIFPPSDEQLKSGTASVVCLLNNFYPREAKVQWKVDNALQSGNSQESVTEQDSKDSTYSLSSTLTLSKADYEKHKVYACEVTHQGLSSPVTKSFNRGEC
B5: PI-HX-3021 (antibody, V domains shown)
VH: QVRLVQSGTALVRPGASVRMSCTASGYSFTDYWVSWVKQSHGQSLEWIGEIYPNSGTTNFNEKFEGKATLTVDKSTSTAYMELSRLTSEDSAIYYCTGEGTFDYWGQGVMVTVSS
VL: EIVLTQSPTTMAASPGEKVTITCRPSSSLSNMHWFQQKSGTSPKPWIYDTSKLASGVPDRFSGSGSGTSYSLTISSMEAEDAATYYCLQRSSYPPTFGAGTKLELK
notes: Rat IgG2a hybridoma antibody; Not the effector dead PI-3021; also called PI-3007 (name of the recombinant form)
B6: PI-HX-3016 (antibody, rat IgG1, V domains shown)
VH: EVQLVESGGGLVKPGASLKLSCVASGFTFSDDWMNWVRQTPGKAMEWIGDIKYDGSYTNYVPSLKNRLTISRDNAKNTLYLQMTNVRSEDTATYYCTSGGVFDYWGQGVMVTVSS
VL: EIVLSQSPTTMAASPGEKVTITCRASSSVSYMHWFQQKSGTSPKPWIYDTSKLASGVPDRFSGSGSGTSYSLTISSMEAEDAATYYCLQRSGYPPTFGAGTKLEVK
notes: Rat IgG1 hybridoma antibody

Legend:
[1] = molecular target: T1, N-terminally polyhistidine tagged human …; test: SPR, multi cycle kinetics, huMARCO antigen
Outline: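 Antibodies were captured by anti-mouse Fc mAb amine-coupled to a CM4 chip (4500 RU target). Running buffer was 10 mM HEPES pH 7.4, 150 mM NaCl, 3 mM EDTA, 0.05% surfactant P20. Injections were at 0.625–10 nM with 90 s association and 600 s dissociation, and constants were fitted in BIAevaluation 3.1.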

[2] = molecular target: T2, Human Macrophage Receptor with …; test: competition with AF488 E. coli binding to 293T cells expressing MARCO, flow cytometry
Experimental: Zombie NIR viability dye (BioLegend) was prepared by diluting the stock 1000-fold in D-PBS and added to the cells. The cells were incubated with the dye for 10 min at RT in the dark. The reaction was quenched by adding 1 m of 4× Staining buffer (2% FBS in DBPS containing Ca²⁺), followed by centrifugation at 400×g for 5 min at 4° C. Cells were then plated in V-shaped 96 well plates at a density of 100,000 cells. A488-fluorescently labeled bacteria (E. coli from Invitrogen) was added at 10 μg/ml with the anti-human or anti-mouse antibodies of interest for a 30 min incubation at 37 C. Plates were then washed twice followed by resuspension in 100 ul of staining buffer for acquisition on the flow cytometer (Attune NxT, Life Technologies). Flow cytometry data were analyzed using FlowJo software (version 10.6.1) and data were processed and further analyzed in Microsoft Excel and GraphPad Prism software (version 8).
The newly generated rat hybridoma anti-human MARCO antibodies were characterized as previously described. Neither antibody bound to MSR1. Binding kinetics were determined via Multi Cycle Kinetics analysis using the huMARCO antigen as previously described.

[3] = molecular target: T1, N-terminally polyhistidine tagged human …; test: SPR, single cycle (sc)
[4] = molecular target: T3, recombinant cynomolgus MARCO protein; test: SPR, single cycle (sc)
[5] = molecular target: T4, N-terminal his-tagged mouse MARCO …; test: Biacore; antigen construct not stated

Binder	Kd [1]	EC50 [2]	Kd [3]	Kd [4]	koff [5]	kon [5]
B1	0.256 nM	0.52 nM	–	–	–	–
B2	0.0913 nM	0.18 nM	–	–	–	–
B3	–	–	0.911 nM	0.611 nM	–	–
B4	–	–	0.43 nM	0.259 nM	–	–
B5	–	–	–	–	2.11e-05 s⁻¹	191000 M⁻¹ s⁻¹
B6	–	–	–	–	1.27e-06 s⁻¹	184000 M⁻¹ s⁻¹
